Measured values: article PMC3718800, “Structural and Functional Perturbation of Giardia lamblia Triosephosphate Isomerase by Modification of a Non-Catalytic, Non-Conserved Region” (PLoS ONE, 2013)

Experiment: TIM activity coupled assay, kinetic constants of WT GlTIM and C222 mutants with GAP
Type: biochemical, Giardia lamblia
Description: Glyceraldehyde 3-phosphate (GAP), buffers, salts and all the other analytical grade reagents were acquired from Sigma–Aldrich; α-glycerol-3-phosphate dehydrogenase (α-GDH) was from Roche, crystallization screen kits were obtained from Hampton Research. Restriction enzymes, DNA polymerase and T4 DNA ligase were purchased from New England BioLabs and Invitrogene. Oligonucleotide synthesis and DNA sequencing was performed at the Unidad de Biología Molecular, Instituto de Fisiología Celular, UNAM. Protein concentration was determined by the bicinchoninic acid method or by absorbance at 280 nm for pure GlTIM (ε280 = 26600 M^-1cm^-1). The TIM activity was determined at 25°C by a coupled assay, following the decrease in absorbance at 340 nm. The standard reaction mixture contained 100 mM triethanolamine/10 mM EDTA, pH 7.4 (TE buffer), 1 mM GAP, 0.2 mM NADH, and 0.9 units of α-GDH (20 μg/mL); the reaction was initiated by addition of 5 ng/mL of WT, C222V or C222M GlTIM, 10 ng/mL of C222N, 20 ng/mL of C222D or C222F, and 200 ng/mL of C222K. Kinetic, binding and stability data were analyzed by non-linear regression calculations with Origin software.
Determination of Km and Vmax was performed by fitting initial velocity data at GAP concentrations ranging from 0.3 to 3 mM to the Michaelis-Menten equation (v = Vmax•S/Km+S) by non-linear regression calculations. […]

B1: GlTIM: recombinant wild type triosephosphate isomerase of Giardia lamblia (protein, UniProt P36186 1-257, looked up)
Triosephosphate isomerase: MPARRPFIGGNFKCNGSLDFIKSHVAAIAAHKIPDSVDVVIAPSAVHLSTAIAANTSKQLRIAAQNVYLEGNGAWTGETSVEMLQDMGLKHVIVGHSERRRIMGETDEQSAKKAKRALEKGMTVIFCVGETLDERKANRTMEVNIAQLEALGKELGESKMLWKEVVIAYEPVWSIGTGVVATPEQAEEVHVGLRKWFAEKVCAEGAQHIRIIYGGSANGSNCEKLGQCPNIDGFLVGGASLKPEFMTMIDILTKTRT
Q: What does the source list for B1?
A: Vmax (GAP 0.3 to 3 mM, 25°C, pH 7.4): 8050 ± 444 µmol/min/mg; kcat x 10^5 (calculated from Vmax, molecular mass 27.7 kDa): 4.4 x 10^5 min^-1
